From publication doi:10.1101/2025.11.27.690911

Molecular target: thrombin (UniProt P00734;P00734 328-363;364-622)
Test: SPR

B1: SuperCan (structured_DNA)
DNA: GAAGAATGAACAGAGTAGGTCAAAGTCAGTGGGGAGTACACCACTGACGACGAGTTGAATGAACGTAGGAAGTAAGTATACGTTCATTCTTAGCTTCCAAAGCAGAGTGCGAGGCTTTGGAGCGTAACTTGCGTTATCGTCGCAAGAAAGCAAACGGTGATGAGACAATC
- binding result: binds
